Test results reported in US20260125455A1 (CLEVELAND CLINIC FOUNDATION, published 2026).

How the values were obtained:
[1] = target: T1, human complement protein C6 (human, UniProt P13671 22-934); experiment: ELISA, C6-coated wells
T1 construct: also called human C6; C6 antigen
Method: The binding of the purified chimeric molecules, MoC601 HuG4K and MoC601 HuG1KFab, was also confirmed by ELISA, where the anti-human IgG (Fab-specific) secondary reagent was used. The control mouse antibody bound as previously (EC₅₀ 0.11 nM). The EC₅₀ for purified MoC601 HuG4K (0.27 nM) was similar to that obtained for the MoC601 HuG4K supernatant sample above. […] The EC₅₀ value for the Fab molecule (0.48 nM) was higher than for the antibody, which would be expected since the Fab is unable to bind bivalently to the antigen on the well. A C6-binding assay was also set up on the Octet RED384 instrument. […] However, MoC601 MoG1K could be stably loaded onto anti-mouse Fc (AMC) biosensors. Concentrations of the mouse and chimeric antibodies were adjusted to give similar levels of loading on to the AMC and […]

[2] = target: T1, human complement protein C6; experiment: ELISA, C6-coated wells, same experiment as the chimeric supernatants
Method: The chimeric molecules, MoC601 HuG4K and MoC601 HuG1KFab, were tested for C6 binding in the form of expression supernatants. In this experiment, the human molecules were detected with an HRP-conjugated goat anti-human kappa chain reagent, which gave relative low signals. However, the binding of both chimeric molecules to C6 was confirmed. The EC₅₀ value for MoC601 HuG4K (0.43 nM) was higher than that of the mouse antibody (0.07 nM), though this was lower than in previous experiments. A further experiment was performed to find a more suitable anti-human antibody detection reagent. MoC601 HuG4K from expression supernatant was detected with three different secondary antibodies. Both anti-human IgG Fc-specific and Fab-specific detection gave higher signals than the anti-kappa chain reagent but the Fc-specific detection yielded a very low EC₅₀ (0.03 nM).

[3] = target: T1, human complement protein C6; experiment: ELISA, C6 coated at 0.5 and 1.0 µg/ml, anti-mouse IgG (Fc-specific) HRP
Method: Prior to the generation of the chimeric molecules, the binding ELISA was optimised using purified mouse 1C9 antibody. The ELISA method published in Lin et al., 2020, uses human C6 protein at a concentration of 1 nM (0.12 μg/ml) to coat the ELISA plate wells. Since this is lower than the concentrations generally used, coating concentration of 0.5 μg/ml and 1.0 μg/ml were also tested. Binding of the mouse antibody (designated MoC601 MoG1K) was detected with an HRP-conjugated goat anti-mouse IgG (Fc-specific) reagent in an ELISA assay. […] This is likely to make the assay unsuitable for differentiating between the binding of different humanized variants to C6. In contrast, C6 coating concentrations of 0.5 μg/ml and 1.0 μg/ml yield results which show a clear dose-response to MoC601 MoG1K antibody, with sigmoidal-shaped curves and a consistent EC₅₀ value (0.12 nM). […] Due to lower signal variation, 1.0 μg/ml was used as the C6 coating concentration in subsequent experiments.

[4] = target: T1, human complement protein C6; experiment: BLI (Octet RED384), antibody on anti-mouse Fc (AMC) biosensors, C6 0.27-5 nM, 1:1 fit, experiment 2
Method: (§1) The binding of the purified chimeric molecules, MoC601 HuG4K and MoC601 HuG1KFab, was also confirmed by ELISA, where the anti-human IgG (Fab-specific) secondary reagent was used. The control mouse antibody bound as previously (EC₅₀ 0.11 nM). The EC₅₀ for purified MoC601 HuG4K (0.27 nM) was similar to that obtained for the MoC601 HuG4K supernatant sample above. […] The EC₅₀ value for the Fab molecule (0.48 nM) was higher than for the antibody, which would be expected since the Fab is unable to bind bivalently to the antigen on the well. A C6-binding assay was also set up on the Octet RED384 instrument. […] However, MoC601 MoG1K could be stably loaded onto anti-mouse Fc (AMC) biosensors. Concentrations of the mouse and chimeric antibodies were adjusted to give similar levels of loading on to the AMC and
Protein G biosensors respectively in subsequent experiments. There was no non-specific binding of C6 protein to unloaded sensors or sensors loaded with an isotype control antibody. […] The mouse and chimeric datasets were processed by subtracting the no antigen controls and the data were fitted to a 1:1 binding model. Binding curves giving Req/Rₘₐₓ ratios>90% or showing poor fitting were excluded from analysis. A second full kinetic experiment was performed with an adjusted concentration range (six points, 0.27-5 nM) and an extended dissociation step of 20 minutes.

[5] = target: T1, human complement protein C6; experiment: BLI (Octet RED384), antibody on anti-mouse Fc (AMC) biosensors, C6 0.16-10 nM, 1:1 fit, experiment 1
Method: as §1
(§2) Protein G biosensors respectively in subsequent experiments. There was no non-specific binding of C6 protein to unloaded sensors or sensors loaded with an isotype control antibody. A full kinetic experiment was run for purified MoC601 MoG1K and MoC601 HuG4K antibodies using seven concentrations of C6 (0.16-10 nM) and association and dissociation steps of 20 and 15 minutes respectively. The mouse and chimeric datasets were processed by subtracting the no antigen controls and the data were fitted to a 1:1 binding model. […]

[6] = target: T1, human complement protein C6; experiment: BLI (Octet RED384), antibody on anti-mouse Fc (AMC) biosensors, C6 0.16-10 nM, 1:1 fit, experiment 1; experiment 1
Method: as §1, §2

T1 sequence (P13671 22-934 limits assumed): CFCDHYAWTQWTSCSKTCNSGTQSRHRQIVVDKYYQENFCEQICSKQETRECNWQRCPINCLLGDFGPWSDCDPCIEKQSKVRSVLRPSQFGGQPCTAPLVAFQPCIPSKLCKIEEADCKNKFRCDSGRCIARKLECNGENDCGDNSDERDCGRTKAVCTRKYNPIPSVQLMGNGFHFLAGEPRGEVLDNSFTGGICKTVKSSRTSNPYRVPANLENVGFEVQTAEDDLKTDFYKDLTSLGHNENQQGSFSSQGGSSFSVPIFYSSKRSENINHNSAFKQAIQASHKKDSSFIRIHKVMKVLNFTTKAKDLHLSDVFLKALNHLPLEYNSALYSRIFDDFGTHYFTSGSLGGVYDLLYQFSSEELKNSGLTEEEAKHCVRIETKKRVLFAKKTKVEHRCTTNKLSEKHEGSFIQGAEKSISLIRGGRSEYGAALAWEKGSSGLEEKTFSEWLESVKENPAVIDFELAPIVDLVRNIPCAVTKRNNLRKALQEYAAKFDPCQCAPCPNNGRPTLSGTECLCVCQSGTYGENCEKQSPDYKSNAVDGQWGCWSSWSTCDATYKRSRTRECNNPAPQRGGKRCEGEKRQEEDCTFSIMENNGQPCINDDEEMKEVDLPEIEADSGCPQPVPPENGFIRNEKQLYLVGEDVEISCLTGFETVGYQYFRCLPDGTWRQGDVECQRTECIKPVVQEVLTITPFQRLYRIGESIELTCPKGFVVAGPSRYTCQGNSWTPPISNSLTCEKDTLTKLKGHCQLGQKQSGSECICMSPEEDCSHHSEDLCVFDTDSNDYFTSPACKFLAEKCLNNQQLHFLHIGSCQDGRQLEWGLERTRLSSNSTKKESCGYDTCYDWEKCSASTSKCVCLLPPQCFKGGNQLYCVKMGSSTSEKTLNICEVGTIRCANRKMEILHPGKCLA

EC50 [1]: 110 pM | EC50 [2]: 70 pM | EC50 [3]: 120 pM | Kd [4]: 290 pM | kon [4]: 690000 M⁻¹ s⁻¹ | Kd [5]: 420 pM | kon [5]: 730000 M⁻¹ s⁻¹ | koff [6]: 0.00031 s⁻¹
B1: MoC601 MoG1K (mouse anti-C6 monoclonal antibody 1C9) (antibody, V domains shown)
VH: QVQLQQSGAELVKPGASVKISCKASGYAFSDYWMNWVKQRPGKGLEWIGQIYPGDDDTNYNGKFKGKATLTADKSSSTAYMQLSSLTSEDSAVYFCAREGYYGYTYVEYFDVWGTGTTVTVSS
VL: QIVLTQSPAIMSVSPGEKVTLTCSASSSVSYMHWYQQKSGTSPKRWIYDTSKLASGVPARFSGSGSGTSYSLTISSMEAEDAATYYCQQWTSNPLTFGAGTKLELR
notes: also called mAb 1C9; mouse antibody
